Numbering of substitutions follows the chain as printed.
B1: NI-307.26A3 (antibody, V domains shown)
VH: EVQLVESGGVLVQPGGSLRLSCAASGFTFSSYAMTWVRQAPEKGLEWVSTIIGNGAYTYYADSVKGRFTISRDNSKNTLILQMNSLRADDAAVYYCAKGTELAPYYYYFALDVWGQGTTVTVSS
VL: EIVLTQSPGTLSLSPGERATLSCRASQSISSSHLAWYQQKPGQAPRLLIYGASSRATGIPDRFSGGGSGTDFTLTITRLEPEDFAVYYCQQYGSSPYTFGQGTKLEIK
B2: NI-307.47B11 (antibody, V domains shown)
VH: EVQLVESGGGLVKPGGSLRLSCAASGFTFSDYYMNWIRQAPGKGLEWLSCISSSGNTIYYADSVKGRFTISRDNAKNSLYLQMNSLRAEDTAVYYCARDLDKAATGRPYFDYWGQGTLVTVSS
VL: not shown
B3: NI-307.27C2 (antibody, V domains shown)
VH: EVQLVESGGGLVKPGGSLRLSCAASGFTFSSYTMNWVRQAPGKGLQWVSSISSSSTYMYYGDSVKGRFTISRDNARNSLYLQMNSLRVEDTAVYYCARYAHDWNVDYWGQGTLVTVSS
VL: QSVLTQPPSASGTPGQRVTISCSGGSSNIGSNPVNWFQQFPGTAPKLLIYANTQRPSGVPDRFSGSKSGTSVSLAISGLQSEDEGDYHCAAWDDSLKGWVFGGGTKLTVL
B4: NI-307.53B11 (antibody, V domains shown)
VH: EVQLVQSGAEVKKPGESLKISCKGSGYSFTSYWIGWVRQMPGKGLEWMGIIYPGDSDTRYSPSFQGQVTISADKSITTAYLQWSSLKASDTALYYCARRGSGSFSNYDFWGQGTLVTVSS
VL: QSALTQPRSVSGSPGQSVTISCTGTSSDVGAYNYVSWYQQHPVKAPKLMIYDVSKRPSGVPDRFSGSRSGNTASLTISGLQADDEADYYCCSYAGTYTVLFGGGTKLTVL
B5: NI-307.27C11 (antibody, V domains shown)
VH: QVQLQESGPGLVKPSGTLSLTCAVSGDSISSSNWWSWVRQPPGKGLEWIGEIYHSGGTKYNPSLKSRVTISVDKSKNHFSLKLRSVTAADTAVYYCARNRWFDNNRGGYYYYGMDVWGQGTTVTVSS
VL: DIQMTQSPSSLSASVGDRVTITCRASQGISSYLNWYQQKPGKAPKLLISATSDLQSGVPSRFSGSGSGTDFTLTISSLQPEDFATYYCQQSYSTPYTFGQGTKLEIK
B6: NI-307.50H4 (antibody, V domains shown)
VH: B5 VH with G45R, T122M
VL: B5 VL with S26G, S31T, K45N, S49Y, S93N, T94N, L104V
B7: NI-307.43E8 (antibody, V domains shown)
VH: EVQLVESGGDVVQPGRSLRLSCAASGFAFSIYAMNWVRQAPGKGLEWVALISTSGTEHYADSVKGRFTISRDNSKNTLFLQINSLRVEDTAVYYCARDLDSTGYYENNYWGQGTLVTVSS
VL: DVVMTQSPLSSPVSLGQPASISCRSSHSLVHSNGDTYLSWLQQRPGQPPRLLIYKISNRFSGVPDRFSGSGAGTDFTLKISRVEAEDVGVYFCMQATSFPRTFGQGTKVEIK
B8: NI-307.29B1 (antibody, V domains shown)
VH: EVQLVESGGGLVKPGGSLRLSCAASGITFQYYAMNWVRQAPGKGLEWVSSIGGRGDTTYYTDSVKGRFTISRDNSKSTLYLQMNSLRAEDTAVYYCAKEPFDSSGDHRGVFDYWGQGTLVTVSS
VL: QSVVTQPPSVSGAPGQRVTISCAGSRSNIGAGYDVNWYQQLPRTAPKLLIYDNTRRPSGVPARFSGSKSGSSASLTITGLQAEDEADYYCQSYDSKLNKVFGGGTKLTVL
B9: NI-307.45E10 (antibody, V domains shown)
VH: EVQLVESGGGLVQPGGSLRLSCAASGFSFRFYAMNWVRQAPGKGLEYVSGISGGGGTTYYADSVKGRFTISRDNSKNTLYLQMKSLRAEDTAIYYCAKDQSYCSGAGCHPYYLDYWGQGTLVTVSS
VL: SYVLTQPPSVSVAPGQTARITCGGNNIGSKSVHWYQQKPGQAPVVVVYDDSGRPSGMPERFSGSNSGNTATLTISRVEAGDEADYYCQVWDSSSDHLYVFGTGTKVTVL
B10: NI-307.105C7 (antibody, V domains shown)
VH: B9 VH with R30G, I51V, T57S, A106G, G107S
VL: B9 VL with M57I, L97P

Molecular target: T1, JCV VP1 VLP (JC virus (JCV), Mad-1 strain, UniProt P03089 1-354)
T1 construct: also called JCV VP1 VLPs; JCV VP1 (coating with reassociation buffer)
Assay: direct ELISA, plate coated with antigen at 5 µg/ml in reassociation buffer (VLP); EC50 by non-linear regression (GraphPad Prism)

| Binder | EC50 [nM] |
| --- | --- |
| B1 | 0.049 |
| B2 | 0.048 |
| B3 | 0.052 |
| B4 | 0.064 |
| B5 | 0.042 |
| B6 | 0.055 |
| B7 | 0.64 |
| B8 | 0.076 |
| B9 | 0.024 |
| B10 | 0.04 |
